First the molecules themselves.
T1: human G-CSF receptor (human, UniProt Q99062 25-836)
T1 sequence (looked up): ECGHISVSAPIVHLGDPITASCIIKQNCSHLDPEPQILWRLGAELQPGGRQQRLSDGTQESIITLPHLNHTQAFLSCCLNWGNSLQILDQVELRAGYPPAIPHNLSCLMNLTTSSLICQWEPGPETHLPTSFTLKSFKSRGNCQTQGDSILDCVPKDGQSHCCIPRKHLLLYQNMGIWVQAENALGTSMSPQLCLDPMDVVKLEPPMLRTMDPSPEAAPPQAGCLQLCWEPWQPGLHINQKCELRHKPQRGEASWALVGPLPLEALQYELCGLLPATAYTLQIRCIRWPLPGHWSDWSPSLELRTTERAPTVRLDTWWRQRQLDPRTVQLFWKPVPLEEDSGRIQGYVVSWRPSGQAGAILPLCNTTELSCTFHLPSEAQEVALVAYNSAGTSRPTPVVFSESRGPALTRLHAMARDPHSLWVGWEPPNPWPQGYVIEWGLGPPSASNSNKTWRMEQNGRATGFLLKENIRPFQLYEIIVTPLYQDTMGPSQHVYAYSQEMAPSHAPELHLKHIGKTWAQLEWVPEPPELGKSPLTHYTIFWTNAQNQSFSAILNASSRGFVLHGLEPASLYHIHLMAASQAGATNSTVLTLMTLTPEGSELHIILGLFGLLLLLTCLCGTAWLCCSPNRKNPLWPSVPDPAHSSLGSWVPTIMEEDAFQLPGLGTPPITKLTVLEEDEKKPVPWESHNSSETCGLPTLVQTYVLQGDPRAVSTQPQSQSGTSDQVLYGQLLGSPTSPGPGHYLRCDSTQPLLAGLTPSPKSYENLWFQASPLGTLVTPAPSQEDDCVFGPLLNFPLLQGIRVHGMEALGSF

B1: G-CSF variant 23Q conjugated to SPA-PEG 5000 (ligand)
chain: TPLGPASSLPQSFLLKCLEQVRQIQGDGAALQEKLCATYKLCHPEELVLLGHSLGIPWAPLSSCPSQALQLAGCLSQLHSGLFLYQGLLQALEGISPELGPTLDTLQLDVADFATTIWQQMEELGMAPALQPTQGAMPAFASAFQRRAGGVLVASHLQSFLEVSYRVLRHLAQP
modifications: SPA-PEG 5000 conjugated to the available PEGylation sites
B2: G-CSF variant K16/34/40R Q90K Q120K T133K, non-conjugated (ligand)
chain: TPLGPASSLPQSFLLRCLEQVRKIQGDGAALQERLCATYRLCHPEELVLLGHSLGIPWAPLSSCPSQALQLAGCLSQLHSGLFLYQGLLKALEGISPELGPTLDTLQLDVADFATTIWQKMEELGMAPALQPKQGAMPAFASAFQRRAGGVLVASHLQSFLEVSYRVLRHLAQP
B3: G-CSF variant K16/34/40R Q90K T105K S159K, non-conjugated (ligand)
chain: TPLGPASSLPQSFLLRCLEQVRKIQGDGAALQERLCATYRLCHPEELVLLGHSLGIPWAPLSSCPSQALQLAGCLSQLHSGLFLYQGLLKALEGISPELGPTLDKLQLDVADFATTIWQQMEELGMAPALQPTQGAMPAFASAFQRRAGGVLVASHLQKFLEVSYRVLRHLAQP
B4: G-CSF variant 23R, non-conjugated (ligand)
chain: TPLGPASSLPQSFLLKCLEQVRRIQGDGAALQEKLCATYKLCHPEELVLLGHSLGIPWAPLSSCPSQALQLAGCLSQLHSGLFLYQGLLQALEGISPELGPTLDTLQLDVADFATTIWQQMEELGMAPALQPTQGAMPAFASAFQRRAGGVLVASHLQSFLEVSYRVLRHLAQP
B5: G-CSF variant K16/34/40R Q70K Q120K T133K, non-conjugated (ligand)
chain: TPLGPASSLPQSFLLRCLEQVRKIQGDGAALQERLCATYRLCHPEELVLLGHSLGIPWAPLSSCPSQALKLAGCLSQLHSGLFLYQGLLQALEGISPELGPTLDTLQLDVADFATTIWQKMEELGMAPALQPKQGAMPAFASAFQRRAGGVLVASHLQSFLEVSYRVLRHLAQP
B6: G-CSF variant K16/34/40R Q90K T105K Q120K, non-conjugated (ligand)
chain: TPLGPASSLPQSFLLRCLEQVRKIQGDGAALQERLCATYRLCHPEELVLLGHSLGIPWAPLSSCPSQALQLAGCLSQLHSGLFLYQGLLKALEGISPELGPTLDKLQLDVADFATTIWQKMEELGMAPALQPTQGAMPAFASAFQRRAGGVLVASHLQSFLEVSYRVLRHLAQP
B7: G-CSF variant K16/34/40R Q90K T105K Q120K conjugated to SPA-PEG 5000 (ligand)
chain: TPLGPASSLPQSFLLRCLEQVRKIQGDGAALQERLCATYRLCHPEELVLLGHSLGIPWAPLSSCPSQALQLAGCLSQLHSGLFLYQGLLKALEGISPELGPTLDKLQLDVADFATTIWQKMEELGMAPALQPTQGAMPAFASAFQRRAGGVLVASHLQSFLEVSYRVLRHLAQP
modifications: SPA-PEG 5000 conjugated to the available PEGylation sites
B8: G-CSF variant K16/34/40R Q90K T105K T133K conjugated to SPA-PEG 5000 (ligand)
chain: TPLGPASSLPQSFLLRCLEQVRKIQGDGAALQERLCATYRLCHPEELVLLGHSLGIPWAPLSSCPSQALQLAGCLSQLHSGLFLYQGLLKALEGISPELGPTLDKLQLDVADFATTIWQQMEELGMAPALQPKQGAMPAFASAFQRRAGGVLVASHLQSFLEVSYRVLRHLAQP
modifications: SPA-PEG 5000 conjugated to the available PEGylation sites
B9: G-CSF variant K16/34/40R Q70K Q90K T133K, non-conjugated (ligand)
chain: TPLGPASSLPQSFLLRCLEQVRKIQGDGAALQERLCATYRLCHPEELVLLGHSLGIPWAPLSSCPSQALKLAGCLSQLHSGLFLYQGLLKALEGISPELGPTLDTLQLDVADFATTIWQQMEELGMAPALQPKQGAMPAFASAFQRRAGGVLVASHLQSFLEVSYRVLRHLAQP
B10: G-CSF variant K16/34/40R Q70K Q90K T133K conjugated to SPA-PEG 5000 (ligand)
chain: TPLGPASSLPQSFLLRCLEQVRKIQGDGAALQERLCATYRLCHPEELVLLGHSLGIPWAPLSSCPSQALKLAGCLSQLHSGLFLYQGLLKALEGISPELGPTLDTLQLDVADFATTIWQQMEELGMAPALQPKQGAMPAFASAFQRRAGGVLVASHLQSFLEVSYRVLRHLAQP
modifications: SPA-PEG 5000 conjugated to the available PEGylation sites
B11: G-CSF variant K16/34/40R Q90K Q120K T133K conjugated to SPA-PEG 5000 (ligand)
chain: TPLGPASSLPQSFLLRCLEQVRKIQGDGAALQERLCATYRLCHPEELVLLGHSLGIPWAPLSSCPSQALQLAGCLSQLHSGLFLYQGLLKALEGISPELGPTLDTLQLDVADFATTIWQKMEELGMAPALQPKQGAMPAFASAFQRRAGGVLVASHLQSFLEVSYRVLRHLAQP
modifications: SPA-PEG 5000 conjugated to the available PEGylation sites
B12: G-CSF variant K16/34/40R Q70K Q120K S142K, non-conjugated (ligand)
chain: TPLGPASSLPQSFLLRCLEQVRKIQGDGAALQERLCATYRLCHPEELVLLGHSLGIPWAPLSSCPSQALKLAGCLSQLHSGLFLYQGLLQALEGISPELGPTLDTLQLDVADFATTIWQKMEELGMAPALQPTQGAMPAFAKAFQRRAGGVLVASHLQSFLEVSYRVLRHLAQP
B13: G-CSF variant K16/34/40R T105K Q120K T133K, non-conjugated (ligand)
chain: TPLGPASSLPQSFLLRCLEQVRKIQGDGAALQERLCATYRLCHPEELVLLGHSLGIPWAPLSSCPSQALQLAGCLSQLHSGLFLYQGLLQALEGISPELGPTLDKLQLDVADFATTIWQKMEELGMAPALQPKQGAMPAFASAFQRRAGGVLVASHLQSFLEVSYRVLRHLAQP
B14: G-CSF variant K16/34/40R Q70K Q120K S142K conjugated to SPA-PEG 5000 (ligand)
chain: TPLGPASSLPQSFLLRCLEQVRKIQGDGAALQERLCATYRLCHPEELVLLGHSLGIPWAPLSSCPSQALKLAGCLSQLHSGLFLYQGLLQALEGISPELGPTLDTLQLDVADFATTIWQKMEELGMAPALQPTQGAMPAFAKAFQRRAGGVLVASHLQSFLEVSYRVLRHLAQP
modifications: SPA-PEG 5000 conjugated to the available PEGylation sites
B15: G-CSF variant K16/34/40R Q70K T105K Q120K, non-conjugated (ligand)
chain: TPLGPASSLPQSFLLRCLEQVRKIQGDGAALQERLCATYRLCHPEELVLLGHSLGIPWAPLSSCPSQALKLAGCLSQLHSGLFLYQGLLQALEGISPELGPTLDKLQLDVADFATTIWQKMEELGMAPALQPTQGAMPAFASAFQRRAGGVLVASHLQSFLEVSYRVLRHLAQP
B16: G-CSF variant K16/34/40R Q70K Q120K T133K conjugated to SPA-PEG 5000 (ligand)
chain: TPLGPASSLPQSFLLRCLEQVRKIQGDGAALQERLCATYRLCHPEELVLLGHSLGIPWAPLSSCPSQALKLAGCLSQLHSGLFLYQGLLQALEGISPELGPTLDTLQLDVADFATTIWQKMEELGMAPALQPKQGAMPAFASAFQRRAGGVLVASHLQSFLEVSYRVLRHLAQP
modifications: SPA-PEG 5000 conjugated to the available PEGylation sites
B17: G-CSF variant K16/34/40R Q90K T105K S159K conjugated to SPA-PEG 5000 (ligand)
chain: TPLGPASSLPQSFLLRCLEQVRKIQGDGAALQERLCATYRLCHPEELVLLGHSLGIPWAPLSSCPSQALQLAGCLSQLHSGLFLYQGLLKALEGISPELGPTLDKLQLDVADFATTIWQQMEELGMAPALQPTQGAMPAFASAFQRRAGGVLVASHLQKFLEVSYRVLRHLAQP
modifications: SPA-PEG 5000 conjugated to the available PEGylation sites
B18: G-CSF variant K16/34/40R Q90K Q120K S142K conjugated to SPA-PEG 5000 (ligand)
chain: TPLGPASSLPQSFLLRCLEQVRKIQGDGAALQERLCATYRLCHPEELVLLGHSLGIPWAPLSSCPSQALQLAGCLSQLHSGLFLYQGLLKALEGISPELGPTLDTLQLDVADFATTIWQKMEELGMAPALQPTQGAMPAFAKAFQRRAGGVLVASHLQSFLEVSYRVLRHLAQP
modifications: SPA-PEG 5000 conjugated to the available PEGylation sites
B19: G-CSF variant K16/34/40R Q90K Q120K S142K, non-conjugated (ligand)
chain: TPLGPASSLPQSFLLRCLEQVRKIQGDGAALQERLCATYRLCHPEELVLLGHSLGIPWAPLSSCPSQALQLAGCLSQLHSGLFLYQGLLKALEGISPELGPTLDTLQLDVADFATTIWQKMEELGMAPALQPTQGAMPAFAKAFQRRAGGVLVASHLQSFLEVSYRVLRHLAQP
B20: G-CSF variant K16/34/40R Q90K T105K T133K, non-conjugated (ligand)
chain: TPLGPASSLPQSFLLRCLEQVRKIQGDGAALQERLCATYRLCHPEELVLLGHSLGIPWAPLSSCPSQALQLAGCLSQLHSGLFLYQGLLKALEGISPELGPTLDKLQLDVADFATTIWQQMEELGMAPALQPKQGAMPAFASAFQRRAGGVLVASHLQSFLEVSYRVLRHLAQP
B21: G-CSF variant K16/34/40R Q70K T105K Q120K conjugated to SPA-PEG 5000 (ligand)
chain: TPLGPASSLPQSFLLRCLEQVRKIQGDGAALQERLCATYRLCHPEELVLLGHSLGIPWAPLSSCPSQALKLAGCLSQLHSGLFLYQGLLQALEGISPELGPTLDKLQLDVADFATTIWQKMEELGMAPALQPTQGAMPAFASAFQRRAGGVLVASHLQSFLEVSYRVLRHLAQP
modifications: SPA-PEG 5000 conjugated to the available PEGylation sites
B22: G-CSF variant K16/34/40R Q70K Q90K Q120K conjugated to SPA-PEG 5000 (ligand)
chain: TPLGPASSLPQSFLLRCLEQVRKIQGDGAALQERLCATYRLCHPEELVLLGHSLGIPWAPLSSCPSQALKLAGCLSQLHSGLFLYQGLLKALEGISPELGPTLDTLQLDVADFATTIWQKMEELGMAPALQPTQGAMPAFASAFQRRAGGVLVASHLQSFLEVSYRVLRHLAQP
modifications: SPA-PEG 5000 conjugated to the available PEGylation sites

For the experiment, the target named is T1, human G-CSF receptor. Put plainly: cell-based or functional assay.
As to B1, the “EC50 (% of hG-CSF) conjugated to SPA-PEG 5000” value (“EC50 (% of hG-CSF) conjugated” below) is 0.1 % of hG-CSF. With B2, the “EC50 (% of hG-CSF) non-conjugated” value was 15 % of hG-CSF. On the same count and under the same terms, for B3 the value was 55 % of hG-CSF; for B4, 100 % of hG-CSF. On the same count and under the same terms, for B5 the value was 15 % of hG-CSF; for B6, 10 % of hG-CSF. In the case of B7, the “EC50 (% of hG-CSF) conjugated” value was 2 % of hG-CSF. Still for that read-out and setting: for B8 the value was 2 % of hG-CSF. Take B9: the “EC50 (% of hG-CSF) non-conjugated” value is 15 % of hG-CSF. For the molecule B10, the “EC50 (% of hG-CSF) conjugated” value was 5 % of hG-CSF.

With B11, the “EC50 (% of hG-CSF) conjugated” value was 2 % of hG-CSF. For B12, the “EC50 (% of hG-CSF) non-conjugated” value is 10 % of hG-CSF.

Turning to B13, the “EC50 (% of hG-CSF) non-conjugated” value was 10 % of hG-CSF.

With B14, the “EC50 (% of hG-CSF) conjugated” value was 1 % of hG-CSF. For the molecule B15, the “EC50 (% of hG-CSF) non-conjugated” value is 10 % of hG-CSF. As to B16, the “EC50 (% of hG-CSF) conjugated” value is 2 % of hG-CSF.

As for B17, the “EC50 (% of hG-CSF) conjugated” value is 5 % of hG-CSF. Regarding B18, the “EC50 (% of hG-CSF) conjugated” value was 1 % of hG-CSF. On to B19, for which the “EC50 (% of hG-CSF) non-conjugated” value is 10 % of hG-CSF. Same read-out and setting: for B20 the value was 10 % of hG-CSF. As to B21, the “EC50 (% of hG-CSF) conjugated” value was 2 % of hG-CSF. For the molecule B22, the “EC50 (% of hG-CSF) conjugated” value was 12 % of hG-CSF.

Values taken from patent US20030118612A1 (MAXYGEN, published 2003).
